According to PMC4288179, “Synergic interplay of the La motif, RRM1 and the interdomain linker of LARP6 in the recognition of collagen mRNA expands the RNA binding repertoire of the La module”:
Changes are numbered by the printed parent chain.

Assays:
Assay in all cases: ITC; ITC: 20 mM Tris pH 7.25, 100 mM KCl, 5 mM MgCl2, 1 mM DTT, 298 K; protein titrated into RNA
[1] = target: T1, HsLARP6(70-300) W198A (Homo sapiens, UniProt Q9BRS8 70-300, W198A); conditions: protein: recombinant; tags: N-terminal His6 (TEV-cleavable); stem-loop with internal bulge
T1 sequence: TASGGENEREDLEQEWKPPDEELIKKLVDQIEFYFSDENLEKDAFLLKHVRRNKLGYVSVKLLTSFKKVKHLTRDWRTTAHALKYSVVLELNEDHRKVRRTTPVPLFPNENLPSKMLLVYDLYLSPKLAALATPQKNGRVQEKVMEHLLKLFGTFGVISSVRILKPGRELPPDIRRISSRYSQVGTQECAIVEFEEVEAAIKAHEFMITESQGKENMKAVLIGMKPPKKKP

[2] = target: T2, HsLARP6(70-300) E262A (Homo sapiens, UniProt Q9BRS8 70-300, E262A); conditions: protein: recombinant; tags: N-terminal His6 (TEV-cleavable); stem-loop with internal bulge
T2 sequence: T1 sequence with A129W, E193A

[3] = target: T3, HsLARP6 La module (70-300) (Homo sapiens, UniProt Q9BRS8 70-300); conditions: protein: recombinant; tags: N-terminal His6, TEV-cleaved for initial ITC; stem-loop with internal bulge
T3 sequence: T1 sequence with A129W

[4] = target: T4, HsLARP6(70-300) F102A (Homo sapiens, UniProt Q9BRS8 70-300, F102A); conditions: protein: recombinant; tags: N-terminal His6 (TEV-cleavable); stem-loop with internal bulge
T4 sequence: T1 sequence with F33A, A129W

[5] = target: T5, HsLARP6(70-300) L187A (Homo sapiens, UniProt Q9BRS8 70-300, L187A); conditions: protein: recombinant; tags: N-terminal His6 (TEV-cleavable); stem-loop with internal bulge
T5 sequence: T1 sequence with L118A, A129W

[6] = target: T6, HsLARP6(70-300) R237A (Homo sapiens, UniProt Q9BRS8 70-300, R237A); conditions: protein: recombinant; tags: N-terminal His6 (TEV-cleavable); stem-loop with internal bulge
T6 sequence: T1 sequence with A129W, R168A

[7] = target: T7, RRM1 chimera (Homo sapiens, UniProt Q9BRS8 70-179+P05455:111-202, internal_change); conditions: protein: recombinant; tags: N-terminal His6 (TEV-cleavable); stem-loop with internal bulge
T7 sequence: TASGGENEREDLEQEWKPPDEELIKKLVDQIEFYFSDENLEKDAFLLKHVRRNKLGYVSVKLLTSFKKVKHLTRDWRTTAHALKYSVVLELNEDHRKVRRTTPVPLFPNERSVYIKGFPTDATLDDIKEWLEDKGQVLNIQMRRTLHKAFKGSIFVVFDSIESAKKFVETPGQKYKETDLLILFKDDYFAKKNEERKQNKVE

[8] = target: T8, HsLARP6(70-300) N180R (Homo sapiens, UniProt Q9BRS8 70-300, N180R); conditions: protein: recombinant; tags: N-terminal His6 (TEV-cleavable); stem-loop with internal bulge
T8 sequence: T1 sequence with N111R, A129W

Question: How did the Kd [1] turn out when CCACAAAGAGUCUACAUGUCUAGGGUCUAGACAUGUUCAGCUUUGUGG (structured_RNA) [48 nt RNA (collagen alpha1(I) 5' UTR SL)] was run?
Answer: 71 nM

Question: What about the Kd [2] of the same binder?
Answer: 5.3 nM

Question: What about the Kd [3] of the same binder?
Answer: 48 nM

Question: Does CCACAAAGAGUCUACAUGUCUAGGGUCUAGACAUGUUCAGCUUUGUGG (structured_RNA) [48 nt RNA (collagen alpha1(I) 5' UTR SL)] bind [4]?
Answer: no binding

Question: What about the Kd [5] of the same binder?
Answer: 19 nM

Question: What about the Kd [6] of the same binder?
Answer: 15 nM

Question: Does CCACAAAGAGUCUACAUGUCUAGGGUCUAGACAUGUUCAGCUUUGUGG (structured_RNA) [48 nt RNA (collagen alpha1(I) 5' UTR SL)] bind [7]?
Answer: no binding

Question: What about the Kd [8] of the same binder?
Answer: 32 nM
